Data: paper PMC3074231 (Journal of neurochemistry, 2011)
Residue numbers refer to the chain shown, from its start. In names and notes the source's numbering stands. Several values for one entry are separate records, joined by “and”; a condition that tells them apart may be missing. Equal entries are not always repeated.

B1: STEP61 Cys 65 to Ser (enzyme, UniProt P54830-1 1-541, looked up)
chain: MCCSERLLGLPQPVEMEAPDEAEGLPSKQKEMPPPPPPSPPSEPAQKLPPQGAGSHSLTVRSSLSLFAASQFLLACGVLWLSGHGHSWLQNTTDLISSSLTVLNHLGPVAWLGSGTWGIPSLLLVSLTVSLVIVTTLVWHLLKAPPEPPAPLPPEDRRQSVSRQPSFTYSEWMEEKVEDDFLDLDAVPETPVFDCVMDIKPETDPASLTVKSMGLQERRGSNVSLTLDMCTPGCNEEGFGYLVSPREESAHEYLLSASRVLRAEELHEKALDPFLLQAEFFEIPMNFVDPKEYDIPGLVRKNRYKTILPNPHSRVRLTSPDPEDPLSSYINANYIRGYSGEEKVYIATQGPIVSTVADFWRMVWQERTPIIVMITNIEEMNEKCTEYWPEEQVVHDGVEITVQKVIHTEDYRLRLISLRRGTEERSLKHYWFTSWPDQKTPDRAPPLLHLVREVEEAAQQEGPHCSPIIVHCSAGIGRTGCFIATSICCQQLRREGVVDILKTTCQLRQDRGGMIQTCEQYQFVHHAMSLYEKQLSLQSSE
B2: STEP61 Cys 76 to Ser (enzyme, UniProt P54830-1 1-541, looked up)
chain: B1 chain with S65C, C76S
B3: STEP61 C65S/C76S (enzyme, UniProt P54830-1 1-541, looked up)
chain: B1 chain with C76S
B4: STEP61 (STriatal Enriched Phosphatase, membrane associated isoform), wild type (enzyme, UniProt P54830-1 1-541, looked up)
chain: B1 chain with S65C

Experiments:
[1] = target: STEP46 (cytosolic isoform of STEP), wild type
[2] = target: the molecule itself; test: co-IP
[3] = target: the molecule itself; test: co-IP; remark: listed apart in the source

Molecule	phosphatase activity of STEP46 in the presence of H2O2, % of control [1]	co-immunoprecipitated STEP61-myc, % of WT control [2]	co-immunoprecipitated STEP61-myc, % of untreated WT control (10 mM H2O2, 5 min) [3]
STEP46 (cytosolic isoform of STEP), wild type (enzyme)	40.3 % of control		
B1		38.4 % of control	
B2		35.2 % of control	
B3		13.5 % of control and 16.6 % of WT control	39.4 % of WT control
B4			232 % of WT control
